Measured values reported in US20240409645A1 (DUALYX, published 2024).
Numbering of substitutions follows the chain as printed.

T1: human IL-2Rβ (human, UniProt P14784 27-240, limits assumed)
T1 construct: Recombinant protein, coated (ELISA) or immobilised on CM5 (SPR); also called hu IL-2R; interleukin 2 receptor β-chain
T1 sequence: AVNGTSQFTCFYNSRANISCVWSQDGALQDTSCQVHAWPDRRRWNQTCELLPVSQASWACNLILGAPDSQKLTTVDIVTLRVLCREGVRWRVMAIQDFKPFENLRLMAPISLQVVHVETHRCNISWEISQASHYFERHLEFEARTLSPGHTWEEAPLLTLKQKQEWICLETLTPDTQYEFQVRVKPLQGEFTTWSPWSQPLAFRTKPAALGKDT

B1: FJ1427 P035MP03D02 (VHH)
VHH: QVQLQESGGGLVQTGGSLRLSCAVSGSRFISDVMGWYRQVPGKQRELVADMADGGSAKYADSVKGRFSILRDSVKNTVYLQMSSLKPEDTGIYYCKAGLWLAGRHSDYWGQGTQVTVSS
notes: soluble VHH in periplasmic extract; also called clone nr
B2: FJ1427_P035MP03A04 (VHH)
VHH: EVQLVESGGGSVQTGGSLRLSCVVSGSHFISDVMGWYRQVPGKQRELVADMADGGSVKYGDSVKGRFTILRDSVKNTVTLQMSSLNPEDTGVYYCKAGLWITGRHFDYWGQGTQVTVTS
notes: as for B1
B3: FJ1427_P035MP03B03 (VHH)
VHH: B1 VHH with V2L, Q5V, L101I
notes: soluble VHH in periplasmic extract; also called clone nr; 210
B4: FJ1427_P035MP03E04 (VHH)
VHH: B1 VHH with Q5V, R28H, G42E, G55N, L101I
notes: as for B1
B5: FJ1427_P035MP03E02 (VHH)
VHH: QVQLVESGGGLVQVGGSLSVSCAASGRSFDSITMAYFRQAPGNEREFIAGINFSGSRTAYGDSVKGRFTISRDNAKNTVFLQMNSLNPEDTAVYYCAASPRGFYGPGHALYDYWGQGTQVTVSS
notes: as for B1
B6: FJ1427_P035MP03G02 (VHH)
VHH: EVQLVESGGGLVQPGGSLRLSCAISGGTLDSYGIGWVRQAPGKQREGVSCMSRSDDRTFYADSVKGRFTISKDNAKSTVYLQMTNLKPDDTAVYYCAAVDAYGCSLVQPTTYDFWGLGTQVTVSS
notes: as for B1
B7: FJ1427_P035MP03E03 (VHH)
VHH: QVQLVESGGGLVQPGGSLRLSCAVSGGTLHDYGIGWIRQAPGKQREGVSCMSRSDDKTYYADYVKGRFTISKDNAKNTVYLQMISLKPEDTAVYYCAAVDAYGCSLVQPTTYDYWGQGTQVTVSS
notes: as for B1
B8: FJ1427_P035MP03F03 (VHH)
VHH: B2 VHH with E1Q, G10T, S11L, V57A, L70V, T79Y, T102K, F106S
notes: as for B1
B9: FJ1427_P035MP03G03 (VHH)
VHH: QVQLVESGGGLVQPGGSLGLSCAASGFTFDNYAMSWVRQAPGKGLEWVSSITGAGRGTHYADSVKGRFTISRDNAKNTLYLQMNSLKPEDTAVYYCAKYSSSTYYPPTPARGTDYRGPGTQVTVSS
notes: as for B1
B10: FJ1427 P035MP03B04 (VHH)
VHH: QVQLVESGGGLVQTGGSLRLSCAASGSQFINDVMGWYRQVPGKQRELVADMDDTGSTKYADSVKGRFTILRDSVKNTAYLQMSNLKPEDTGVYYCKAGLWIKGRHSDYWGQGTQVTVSS
notes: as for B1
B11: FJ1427_P035MP03F04 (VHH)
VHH: B10 VHH with Q1E
notes: as for B1
B12: FJ1427_P035MP03F06 (VHH)
VHH: B10 VHH with V5Q
notes: as for B1
B13: FJ1427_P035MP06B01 (VHH)
VHH: QVQLVESGGGLVQAGGSLRLSCAASGDVFVRYTMAWFRQAPGKEREFVASVTDSGRTTDYVHSVKGRFTVSRDNAKNTVYLQMNNLKPEDTAVYYCAANTDYFQIRSLDANTWGQGTQVTVSS
notes: as for B1
B14: FJ1427 P035MP03B08 (VHH)
VHH: B13 VHH with S21A, A24L, H62A, K65Q, A75N, N85S, A110R
notes: soluble VHH in periplasmic extract; also called clone nr; 250
B15: FJ1427 P035MP03B10 (VHH)
VHH: B13 VHH with A23V, A24V, S50V, D59E, H62D, L108V, A110N, T112A
notes: as for B1
B16: FJ1427 P035MP03B11 (VHH)
VHH: B13 VHH with Q1E, S21A, A24L, H62A, K65Q, A75N, N85S, A110R
notes: as for B1
B17: FJ1427 P035MP03B12 (VHH)
VHH: B13 VHH with Q1E, S50A, T58A, H62D, A110R
notes: as for B1
B18: FJ1427 P035MP03C06 (VHH)
VHH: B13 VHH with S21A, A24L, H62A, K65Q, A75N, N85S, A110R
notes: as for B1
B19: FJ1427 P035MP03C08 (VHH)
VHH: B13 VHH with Q1E, S21A, A24L, H62A, K65Q, A75N, N85S, A110R
notes: as for B1
B20: FJ1427 P035MP03C11 (VHH)
VHH: B13 VHH with S21A, A24L, H62A, K65Q, A75N, N85S, A110R
notes: as for B1
B21: FJ1427 P035MP03D07 (VHH)
VHH: B13 VHH with Q1E, V61G, H62D
notes: as for B1
B22: FJ1427 P035MP03D09 (VHH)
VHH: B13 VHH with A24V, R106K
notes: soluble VHH in periplasmic extract; also called clone nr; 260
B23: FJ1427 P035MP03E07 (VHH)
VHH: B13 VHH with A24V, S50T, D59E, H62D, Q104R
notes: as for B1
B24: FJ1427 P035MP06C02 (VHH)
VHH: B13 VHH with A23V, A24V, S50V, D59E, H62D, L108V, A110N, T112A
notes: as for B1
B25: FJ1427 P035MP06D01 (VHH)
VHH: B13 VHH with G10R, D59E, H62D, V79A, D109N, A110L
notes: as for B1
B26: FJ1427_P035MP03A10 (VHH)
VHH: B13 VHH with S21A, A24L, H62A, K65Q, A75N, N85S, A110R
notes: as for B1
B27: FJ1427_P035MP03B05 (VHH)
VHH: B13 VHH with Q1E, S21A, A24L, H62A, K65Q, A75N, N85S, A110R
notes: as for B1
B28: FJ1427_P035MP03B09 (VHH)
VHH: B13 VHH with A23V, A24V, A49T, V51I, D59E, H62D, Q104R
notes: as for B1

Target: T1, human IL-2Rβ
Assay: SPR (Biacore), P.E. off-rate ranking

Q: B1 was tested. Which koff did it give?
A: 0.000796 s⁻¹

Q: Which koff does the source give for B2 here?
A: 0.000373 s⁻¹

Q: B3 was tested. Which koff did it give?
A: 0.000499 s⁻¹

Q: How did the koff turn out when B4 was run?
A: 0.000253 s⁻¹

Q: How did the koff turn out when B5 was run?
A: 0.00124 s⁻¹

Q: Which koff does the source give for B6 here?
A: 0.000754 s⁻¹

Q: With B7 as the binder, how does the koff read?
A: 0.00136 s⁻¹

Q: For B8, which koff is on record?
A: 0.000361 s⁻¹

Q: Which koff does the source give for B9 here?
A: 0.00114 s⁻¹

Q: For B10, which koff is on record?
A: 0.00043 s⁻¹

Q: B11 was tested. Which koff did it give?
A: 0.000402 s⁻¹

Q: For B12, which koff is on record?
A: 0.000286 s⁻¹

Q: With B13 as the binder, how does the koff read?
A: 0.0021 s⁻¹

Q: B14 was tested. Which koff did it give?
A: 0.00064 s⁻¹

Q: With B15 as the binder, how does the koff read?
A: 0.000707 s⁻¹

Q: For B16, which koff is on record?
A: 0.000622 s⁻¹

Q: How did the koff turn out when B17 was run?
A: 0.00125 s⁻¹

Q: For B18, which koff is on record?
A: 0.000658 s⁻¹

Q: B19 was tested. Which koff did it give?
A: 0.000757 s⁻¹

Q: How did the koff turn out when B20 was run?
A: 0.000514 s⁻¹

Q: Which koff does the source give for B21 here?
A: 0.00263 s⁻¹

Q: With B22 as the binder, how does the koff read?
A: 0.00161 s⁻¹

Q: B23 was tested. Which koff did it give?
A: 0.00168 s⁻¹

Q: B24 was tested. Which koff did it give?
A: 0.000455 s⁻¹

Q: How did the koff turn out when B25 was run?
A: 0.00031 s⁻¹

Q: B26 was tested. Which koff did it give?
A: 0.000636 s⁻¹

Q: With B27 as the binder, how does the koff read?
A: 0.000898 s⁻¹

Q: With B28 as the binder, how does the koff read?
A: 0.00202 s⁻¹

Target: T1, human IL-2Rβ
Assay: P.E. binding ELISA on coated protein
Description: In a binding ELISA, human or mouse IL-2Rα, IL-2Rβ and IL-2Rγ proteins were coated directly on maxisorp microtiter plates overnight at 4° C. Free binding sites were blocked using 4% Marvel in PBS for 1 hour. Next, 1:5 dilution of P.E. in 1% Marvel/PBS were added to wells and incubated for 1 hour. […] Binding specificity was determined based on O.D. at 450 nm values compared to negative controls.

Q: For B1, which “P.E. binding ELISA OD” value is on record?
A: 0.116 OD450 nm

Q: For B2, which “P.E. binding ELISA OD” value is on record?
A: 0.305 OD450 nm

Q: B3 was tested. Which “P.E. binding ELISA OD” value did it give?
A: 0.31 OD450 nm

Q: Which “P.E. binding ELISA OD” value does the source give for B4 here?
A: 0.22 OD450 nm

Q: How did the “P.E. binding ELISA OD” value turn out when B5 was run?
A: 0.488 OD450 nm

Q: With B6 as the binder, how does the “P.E. binding ELISA OD” value read?
A: 0.684 OD450 nm

Q: For B7, which “P.E. binding ELISA OD” value is on record?
A: 0.281 OD450 nm

Q: B8 was tested. Which “P.E. binding ELISA OD” value did it give?
A: 0.107 OD450 nm

Q: For B9, which “P.E. binding ELISA OD” value is on record?
A: 0.137 OD450 nm

Q: How did the “P.E. binding ELISA OD” value turn out when B10 was run?
A: 0.186 OD450 nm

Q: How did the “P.E. binding ELISA OD” value turn out when B11 was run?
A: 0.153 OD450 nm

Q: Which “P.E. binding ELISA OD” value does the source give for B12 here?
A: 0.434 OD450 nm

Q: Which “P.E. binding ELISA OD” value does the source give for B13 here?
A: 0.521 OD450 nm

Q: Which “P.E. binding ELISA OD” value does the source give for B14 here?
A: 1.12 OD450 nm

Q: How did the “P.E. binding ELISA OD” value turn out when B15 was run?
A: 0.286 OD450 nm

Q: With B16 as the binder, how does the “P.E. binding ELISA OD” value read?
A: 0.987 OD450 nm

Q: How did the “P.E. binding ELISA OD” value turn out when B17 was run?
A: 0.202 OD450 nm

Q: For B18, which “P.E. binding ELISA OD” value is on record?
A: 1.21 OD450 nm

Q: How did the “P.E. binding ELISA OD” value turn out when B19 was run?
A: 0.972 OD450 nm

Q: With B20 as the binder, how does the “P.E. binding ELISA OD” value read?
A: 1.31 OD450 nm

Q: For B21, which “P.E. binding ELISA OD” value is on record?
A: 0.209 OD450 nm

Q: How did the “P.E. binding ELISA OD” value turn out when B22 was run?
A: 0.313 OD450 nm

Q: B23 was tested. Which “P.E. binding ELISA OD” value did it give?
A: 0.211 OD450 nm

Q: B24 was tested. Which “P.E. binding ELISA OD” value did it give?
A: 0.799 OD450 nm

Q: B25 was tested. Which “P.E. binding ELISA OD” value did it give?
A: 1.1 OD450 nm

Q: How did the “P.E. binding ELISA OD” value turn out when B26 was run?
A: 0.983 OD450 nm

Q: B27 was tested. Which “P.E. binding ELISA OD” value did it give?
A: 0.401 OD450 nm

Q: How did the “P.E. binding ELISA OD” value turn out when B28 was run?
A: 0.467 OD450 nm
